# Results taken from article PMC8403554 (Cell, 2019).
# B1: soybean trypsin inhibitor (natural protein, UniProt P01070 25-205, looked up)
# chain: DFVLDNEGNPLENGGTYYILSDITAFGGIRAAPTGNERCPLTVVQSRNELDKGIGTIISSPYRIRFIAEGHPLSLKFDSFAVIMLCVGIPTEWSVVEDLPEGPAVKIGENKDAMDGWFRLERVSDDEFNNYKLVFCPQQAEDDKCGDIGISIDHDDGTRRLVVSKNKPLVVQFQKLDKESL
# B2: humanized 31A.v11 IgG4 anti-tryptase antibody (antibody, V domains shown)
# VH: EVQLVESGGGLVQPGGSLRLSCAASGFTFSDYGMVWVRQAPGKGLEWVAFISSGSSTVYYADTMKGRFTISRDNSKNTLYLQMNSLRAEDTAVYYCTRRNYDDWYFDVWGQGTLVTVSS
# VL: DIQMTQSPSSLSASVGDRVTITCSASSSVTYMYWYQQKPGKSPKPWIYRTSDLASGVPSRFSGSGSGTDFTLTISSLQPEDFATYYCQHYHSYPLTFGQGTKVEIK
# B3: tetrameric βI-tryptase (insect cells) (enzyme)
# chain: not shown
# Experiments:
# [1] = biological target: B3; assay: crystal structure
# [2] = biological target: human βI-tryptase monomer (Homo sapiens, beta-I allele of TPSAB1, UniProt Q15661); assay: SPR
# Chain of human βI-tryptase monomer (Q15661 31-275): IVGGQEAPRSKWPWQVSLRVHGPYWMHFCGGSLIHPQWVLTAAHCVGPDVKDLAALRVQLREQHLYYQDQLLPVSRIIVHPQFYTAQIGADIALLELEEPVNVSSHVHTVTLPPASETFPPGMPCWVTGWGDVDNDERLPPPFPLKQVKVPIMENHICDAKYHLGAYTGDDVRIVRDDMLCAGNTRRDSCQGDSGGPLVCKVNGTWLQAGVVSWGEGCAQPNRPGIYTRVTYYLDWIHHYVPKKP
# SEC = biological target: the molecule itself; assay: SEC
binder,measurement,setting,value
B1,binding result,[1],binds
B2,fold improvement in binding affinity (Kd) over the parental 31A clone,[2],~10 fold
B3,stoichiometry N,SEC,4
